# Laboratory results: paper PMC13381803 (2026)
# T1: Hna with a C-terminal GFP tag (Sinorhizobium meliloti)
# T1 chain: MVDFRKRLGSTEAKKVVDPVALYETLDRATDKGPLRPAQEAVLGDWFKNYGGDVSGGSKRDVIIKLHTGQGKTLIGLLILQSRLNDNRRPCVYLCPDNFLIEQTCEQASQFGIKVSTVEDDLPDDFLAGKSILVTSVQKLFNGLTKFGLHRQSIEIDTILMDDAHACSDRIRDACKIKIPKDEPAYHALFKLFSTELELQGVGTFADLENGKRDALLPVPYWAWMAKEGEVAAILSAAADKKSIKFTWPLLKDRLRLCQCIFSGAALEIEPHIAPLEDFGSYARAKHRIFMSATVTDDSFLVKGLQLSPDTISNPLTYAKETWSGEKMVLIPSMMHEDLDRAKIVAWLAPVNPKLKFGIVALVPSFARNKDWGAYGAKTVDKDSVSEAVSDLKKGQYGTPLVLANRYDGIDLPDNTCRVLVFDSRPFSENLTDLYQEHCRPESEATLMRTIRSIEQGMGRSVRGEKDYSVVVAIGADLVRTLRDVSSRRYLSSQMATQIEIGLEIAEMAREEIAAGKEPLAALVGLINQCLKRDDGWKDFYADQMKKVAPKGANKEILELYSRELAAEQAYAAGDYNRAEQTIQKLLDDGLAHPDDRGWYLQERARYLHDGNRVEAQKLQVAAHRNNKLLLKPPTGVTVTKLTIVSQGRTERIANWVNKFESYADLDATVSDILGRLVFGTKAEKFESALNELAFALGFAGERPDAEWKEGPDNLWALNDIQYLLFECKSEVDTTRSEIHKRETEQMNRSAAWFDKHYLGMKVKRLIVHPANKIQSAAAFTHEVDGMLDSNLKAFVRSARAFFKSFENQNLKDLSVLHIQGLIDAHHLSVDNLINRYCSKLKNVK
# B1: Hna (helicase-nuclease abortive infection), wild type, Sinorhizobium meliloti (enzyme)
# chain: T1 chain
# How the values were obtained:
# [1] = target: T1, Hna with a C-terminal GFP tag; assay: FP; without ATP
# [2] = target: T1, Hna with a C-terminal GFP tag; assay: FP; with ATP
binder,measurement,setting,value
B1,Kd,[1],4460 nM
same,Kd,[2],337 nM
